Results published in patent US20200199241A1 (Chugai, published 2020).

B1: IgG1-F1265 (antibody)
heavy: QVQLQESGPGLVKPSETLSLTCAVSGHSISHDHAWSWVRQPPGEGLEWIGFISYSGITNYNPSLQGRVTISRDNSKNTLYLQMNSLRAEDTAVYYCARSLARTTAMDYWGEGTLVTVSSASTKGPSVFPLAPSSKSTSGGTAALGCLVKDYFPEPVTVSWNSGALTSGVHTFPAVLQSSGLYSLSSVVTVPSSSLGTQTYICNVNHKPSNTKVDKKVEPKSCDKTHTCPPCPAPELRGGPKVFLFPPKPKDTLYISRGPEVTCVVVDVSHEDPEVKFNWYVDGVEVHNAKTKPREEQYNSTYRVVSVLTVLHQDWLNGKEYKCKVSNKALPAPIEKTISKAKGQPREPQVYTLPPSRDELTKNQVSLTCLVKGFYPSDIAVEWESNGQPENNYKTTPPVLDSDGSFFLYSKLTVDKSRWQQGNVFSCSVMHEALHYHVTRKELSLSP
light: not shown
notes: EU numbering; copies: 2 + 2
B2: IgG1-F1266 (antibody)
heavy: QVQLQESGPGLVKPSETLSLTCAVSGHSISHDHAWSWVRQPPGEGLEWIGFISYSGITNYNPSLQGRVTISRDNSKNTLYLQMNSLRAEDTAVYYCARSLARTTAMDYWGEGTLVTVSSASTKGPSVFPLAPSSKSTSGGTAALGCLVKDYFPEPVTVSWNSGALTSGVHTFPAVLQSSGLYSLSSVVTVPSSSLGTQTYICNVNHKPSNTKVDKKVEPKSCDKTHTCPPCPAPELRGGPKVFLFPPKPKDTLYISRNPEVTCVVVDVSHEDPEVKFNWYVDGVEVHNAKTKPREEQYNSTYRVVSVLTVLHQDWLNGKEYKCKVSNKALPAPIEKTISKAKGQPREPQVYTLPPSRDELTKNQVSLTCLVKGFYPSDIAVEWESNGQPENNYKTTPPVLDSDGSFFLYSKLTVDKSRWQQGNVFSCSVMHEALHYHVTRKELSLSP
light: not shown
notes: EU numbering; copies: 2 + 2
B3: IgG1-F1267 (antibody)
heavy: QVQLQESGPGLVKPSETLSLTCAVSGHSISHDHAWSWVRQPPGEGLEWIGFISYSGITNYNPSLQGRVTISRDNSKNTLYLQMNSLRAEDTAVYYCARSLARTTAMDYWGEGTLVTVSSASTKGPSVFPLAPSSKSTSGGTAALGCLVKDYFPEPVTVSWNSGALTSGVHTFPAVLQSSGLYSLSSVVTVPSSSLGTQTYICNVNHKPSNTKVDKKVEPKSCDKTHTCPPCPAPELRGGPKVFLFPPKPKDTLYIARTPEVTCVVVDVSHEDPEVKFNWYVDGVEVHNAKTKPREEQYNSTYRVVSVLTVLHQDWLNGKEYKCKVSNKALPAPIEKTISKAKGQPREPQVYTLPPSRDELTKNQVSLTCLVKGFYPSDIAVEWESNGQPENNYKTTPPVLDSDGSFFLYSKLTVDKSRWQQGNVFSCSVMHEALHYHVTRKELSLSP
light: not shown
notes: EU numbering; copies: 2 + 2
B4: IgG1-F1268 (antibody)
heavy: QVQLQESGPGLVKPSETLSLTCAVSGHSISHDHAWSWVRQPPGEGLEWIGFISYSGITNYNPSLQGRVTISRDNSKNTLYLQMNSLRAEDTAVYYCARSLARTTAMDYWGEGTLVTVSSASTKGPSVFPLAPSSKSTSGGTAALGCLVKDYFPEPVTVSWNSGALTSGVHTFPAVLQSSGLYSLSSVVTVPSSSLGTQTYICNVNHKPSNTKVDKKVEPKSCDKTHTCPPCPAPELRGGPKVFLFPPKPKDTLYISRTPEVTCVVVDVSHEDPEVKFNWYVDGVEVHNAKTKPREEQYNSTYRVVSVLTVLHQDWLNGKEYKCKVSNKALPAPIEKTISKAKGQPREPQVYTLPPSRDELTKNQVSLTCLVKGFYPSDIAVEWESNGQPENNYKTTPPVLDSDGSFFLYSKLTVDKSRWQQGNVFSCSVMHEALDYHVTRKELSLSP
light: not shown
notes: EU numbering; copies: 2 + 2
B5: IgG1-F1271 (antibody)
heavy: QVQLQESGPGLVKPSETLSLTCAVSGHSISHDHAWSWVRQPPGEGLEWIGFISYSGITNYNPSLQGRVTISRDNSKNTLYLQMNSLRAEDTAVYYCARSLARTTAMDYWGEGTLVTVSSASTKGPSVFPLAPSSKSTSGGTAALGCLVKDYFPEPVTVSWNSGALTSGVHTFPAVLQSSGLYSLSSVVTVPSSSLGTQTYICNVNHKPSNTKVDKKVEPKSCDKTHTCPPCPAPELRGGPKVFLFPPKPKDTLYIARTPEVTCVVVDVSHEDPEVKFNWYVDGVEVHNAKTKPREEQYNSTYRVVSVLTVLHQDWLNGKEYKCKVSNKALPAPIEKTISKAKGQPREPQVYTLPPSRDELTKNQVSLTCLVKGFYPSDIAVEWESNGQPENNYKTTPPVLDSDGSFFLYSKLTVDKSRWQQGNVFSCSVMHEALDYHVTRKELSLSP
light: not shown
notes: EU numbering; copies: 2 + 2
B6: IgG1-F1273 (antibody)
heavy: QVQLQESGPGLVKPSETLSLTCAVSGHSISHDHAWSWVRQPPGEGLEWIGFISYSGITNYNPSLQGRVTISRDNSKNTLYLQMNSLRAEDTAVYYCARSLARTTAMDYWGEGTLVTVSSASTKGPSVFPLAPSSKSTSGGTAALGCLVKDYFPEPVTVSWNSGALTSGVHTFPAVLQSSGLYSLSSVVTVPSSSLGTQTYICNVNHKPSNTKVDKKVEPKSCDKTHTCPPCPAPELRGGPKVFLFPPKPKDTLYISRQPEVTCVVVDVSHEDPEVKFNWYVDGVEVHNAKTKPREEQYNSTYRVVSVLTVLHQDWLNGKEYKCKVSNKALPAPIEKTISKAKGQPREPQVYTLPPSRDELTKNQVSLTCLVKGFYPSDIAVEWESNGQPENNYKTTPPVLDSDGSFFLYSKLTVDKSRWQQGNVFSCSVMHEALHYHVTKKDLSLSP
light: not shown
notes: EU numbering; copies: 2 + 2
B7: IgG1-F1274 (antibody)
heavy: QVQLQESGPGLVKPSETLSLTCAVSGHSISHDHAWSWVRQPPGEGLEWIGFISYSGITNYNPSLQGRVTISRDNSKNTLYLQMNSLRAEDTAVYYCARSLARTTAMDYWGEGTLVTVSSASTKGPSVFPLAPSSKSTSGGTAALGCLVKDYFPEPVTVSWNSGALTSGVHTFPAVLQSSGLYSLSSVVTVPSSSLGTQTYICNVNHKPSNTKVDKKVEPKSCDKTHTCPPCPAPELRGGPKVFLFPPKPKDTLYISRQPEVTCVVVDVSHEDPEVKFNWYVDGVEVHNAKTKPREEQYNSTYRVVSVLTVLHQDWLNGKEYKCKVSNKALPAPIEKTISKAKGQPREPQVYTLPPSRDELTKNQVSLTCLVKGFYPSDIAVEWESNGQPENNYKTTPPVLDSDGSFFLYSKLTVDKSRWQQGNVFSCSVMHEALDYHVTRKELSLSP
light: not shown
notes: EU numbering; copies: 2 + 2
B8: IgG1-F1275 (antibody)
heavy: QVQLQESGPGLVKPSETLSLTCAVSGHSISHDHAWSWVRQPPGEGLEWIGFISYSGITNYNPSLQGRVTISRDNSKNTLYLQMNSLRAEDTAVYYCARSLARTTAMDYWGEGTLVTVSSASTKGPSVFPLAPSSKSTSGGTAALGCLVKDYFPEPVTVSWNSGALTSGVHTFPAVLQSSGLYSLSSVVTVPSSSLGTQTYICNVNHKPSNTKVDKKVEPKSCDKTHTCPPCPAPELRGGPKVFLFPPKPKDTLYISRQPEVTCVVVDVSHEDPEVKFNWYVDGVEVHNAKTKPREEQYNSTYRVVSVLTVLHQDWLNGKEYKCKVSNKALPAPIEKTISKAKGQPREPQVYTLPPSRDELTKNQVSLTCLVKGFYPSDIAVEWESNGQPENNYKTTPPVLDSDGSFFLYSKLTVDKSRWQQGNVFSCSVMHEALDYHVTKKDLSLSP
light: not shown
notes: EU numbering; copies: 2 + 2
B9: IgG1-F1276 (antibody)
heavy: QVQLQESGPGLVKPSETLSLTCAVSGHSISHDHAWSWVRQPPGEGLEWIGFISYSGITNYNPSLQGRVTISRDNSKNTLYLQMNSLRAEDTAVYYCARSLARTTAMDYWGEGTLVTVSSASTKGPSVFPLAPSSKSTSGGTAALGCLVKDYFPEPVTVSWNSGALTSGVHTFPAVLQSSGLYSLSSVVTVPSSSLGTQTYICNVNHKPSNTKVDKKVEPKSCDKTHTCPPCPAPELRGGPKVFLFPPKPKDTLYISRAPEVTCVVVDVSHEDPEVKFNWYVDGVEVHNAKTKPREEQYNSTYRVVSVLTVLHQDWLNGKEYKCKVSNKALPAPIEKTISKAKGQPREPQVYTLPPSRDELTKNQVSLTCLVKGFYPSDIAVEWESNGQPENNYKTTPPVLDSDGSFFLYSKLTVDKSRWQQGNVFSCSVMHEALHYHVTKKDLSLSP
light: not shown
notes: EU numbering; copies: 2 + 2
B10: IgG1-F1277 (antibody)
heavy: QVQLQESGPGLVKPSETLSLTCAVSGHSISHDHAWSWVRQPPGEGLEWIGFISYSGITNYNPSLQGRVTISRDNSKNTLYLQMNSLRAEDTAVYYCARSLARTTAMDYWGEGTLVTVSSASTKGPSVFPLAPSSKSTSGGTAALGCLVKDYFPEPVTVSWNSGALTSGVHTFPAVLQSSGLYSLSSVVTVPSSSLGTQTYICNVNHKPSNTKVDKKVEPKSCDKTHTCPPCPAPELRGGPKVFLFPPKPKDTLYISRAPEVTCVVVDVSHEDPEVKFNWYVDGVEVHNAKTKPREEQYNSTYRVVSVLTVLHQDWLNGKEYKCKVSNKALPAPIEKTISKAKGQPREPQVYTLPPSRDELTKNQVSLTCLVKGFYPSDIAVEWESNGQPENNYKTTPPVLDSDGSFFLYSKLTVDKSRWQQGNVFSCSVMHEALDYHVTRKELSLSP
light: not shown
notes: EU numbering; copies: 2 + 2
B11: IgG1-F1278 (antibody)
heavy: QVQLQESGPGLVKPSETLSLTCAVSGHSISHDHAWSWVRQPPGEGLEWIGFISYSGITNYNPSLQGRVTISRDNSKNTLYLQMNSLRAEDTAVYYCARSLARTTAMDYWGEGTLVTVSSASTKGPSVFPLAPSSKSTSGGTAALGCLVKDYFPEPVTVSWNSGALTSGVHTFPAVLQSSGLYSLSSVVTVPSSSLGTQTYICNVNHKPSNTKVDKKVEPKSCDKTHTCPPCPAPELRGGPKVFLFPPKPKDTLYISRAPEVTCVVVDVSHEDPEVKFNWYVDGVEVHNAKTKPREEQYNSTYRVVSVLTVLHQDWLNGKEYKCKVSNKALPAPIEKTISKAKGQPREPQVYTLPPSRDELTKNQVSLTCLVKGFYPSDIAVEWESNGQPENNYKTTPPVLDSDGSFFLYSKLTVDKSRWQQGNVFSCSVMHEALDYHVTKKDLSLSP
light: not shown
notes: EU numbering; copies: 2 + 2
B12: IgG1-F1279 (antibody)
heavy: QVQLQESGPGLVKPSETLSLTCAVSGHSISHDHAWSWVRQPPGEGLEWIGFISYSGITNYNPSLQGRVTISRDNSKNTLYLQMNSLRAEDTAVYYCARSLARTTAMDYWGEGTLVTVSSASTKGPSVFPLAPSSKSTSGGTAALGCLVKDYFPEPVTVSWNSGALTSGVHTFPAVLQSSGLYSLSSVVTVPSSSLGTQTYICNVNHKPSNTKVDKKVEPKSCDKTHTCPPCPAPELRGGPKVFLFPPKPKDTLYISRGPEVTCVVVDVSHEDPEVKFNWYVDGVEVHNAKTKPREEQYNSTYRVVSVLTVLHQDWLNGKEYKCKVSNKALPAPIEKTISKAKGQPREPQVYTLPPSRDELTKNQVSLTCLVKGFYPSDIAVEWESNGQPENNYKTTPPVLDSDGSFFLYSKLTVDKSRWQQGNVFSCSVMHEALHYHVTKKDLSLSP
light: not shown
notes: EU numbering; copies: 2 + 2
B13: IgG1-F1280 (antibody)
heavy: QVQLQESGPGLVKPSETLSLTCAVSGHSISHDHAWSWVRQPPGEGLEWIGFISYSGITNYNPSLQGRVTISRDNSKNTLYLQMNSLRAEDTAVYYCARSLARTTAMDYWGEGTLVTVSSASTKGPSVFPLAPSSKSTSGGTAALGCLVKDYFPEPVTVSWNSGALTSGVHTFPAVLQSSGLYSLSSVVTVPSSSLGTQTYICNVNHKPSNTKVDKKVEPKSCDKTHTCPPCPAPELRGGPKVFLFPPKPKDTLYISRGPEVTCVVVDVSHEDPEVKFNWYVDGVEVHNAKTKPREEQYNSTYRVVSVLTVLHQDWLNGKEYKCKVSNKALPAPIEKTISKAKGQPREPQVYTLPPSRDELTKNQVSLTCLVKGFYPSDIAVEWESNGQPENNYKTTPPVLDSDGSFFLYSKLTVDKSRWQQGNVFSCSVMHEALDYHVTRKELSLSP
light: not shown
notes: EU numbering; copies: 2 + 2

What follows are binders tested against T1, soluble human FcRn complexed with β2-microglobulin (human, UniProt P61769 21-119, limits assumed) (assay: Biacore SPR, pH 7.0;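 also: test antibodies captured on a Protein L chip with human FcRn flowed over as analyte, KD obtained as the ratio of dissociation to association rate constants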).
T1 construct: also called hFcRn
T1 sequence (chain, as listed by the source limits assumed, chain 1 of 2): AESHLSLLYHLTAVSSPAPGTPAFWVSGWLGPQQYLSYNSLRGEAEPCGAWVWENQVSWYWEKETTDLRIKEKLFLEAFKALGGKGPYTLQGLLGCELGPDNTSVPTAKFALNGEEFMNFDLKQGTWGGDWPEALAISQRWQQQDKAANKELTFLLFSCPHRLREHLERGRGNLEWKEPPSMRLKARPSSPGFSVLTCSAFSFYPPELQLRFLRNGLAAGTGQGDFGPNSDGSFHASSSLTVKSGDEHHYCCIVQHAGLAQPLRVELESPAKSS
T1 sequence (P61769 21-119 limits assumed, chain 2 of 2): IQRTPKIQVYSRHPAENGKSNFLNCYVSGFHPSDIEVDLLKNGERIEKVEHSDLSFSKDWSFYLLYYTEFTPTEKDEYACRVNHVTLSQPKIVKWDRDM
For B1, the Kd was 157 nM.
In the case of B2, the Kd is reported as 99.9 nM.
B3 was tested, and the Kd was 150 nM.
Work on B4 yielded a Kd of 200 nM.
B5 showed a Kd of 205 nM.
With B6 the Kd was 153 nM.
In the case of B7, the Kd is reported as 248 nM.
Binder B8 has a Kd of 209 nM.
Work on B9 yielded a Kd of 102 nM.
Binder B10 has a Kd of 169 nM.
In the case of B11, the Kd is reported as 140 nM.
B12 gave a Kd of 123 nM.
B13 gave a Kd of 209 nM.
